Reference: patent publication US20090325168A1 (ONCOIMMUNIN, published 2009)
Square brackets hold non-standard residues; d marks the D form. Ends that are not written are not given here. * marks the point of attachment. 5‑TMR = 5'-carboxytetramethylrhodamine, CN(C)c1ccc2c(-c3ccc(C(=O)*)cc3C(=O)[O-])c3ccc(=[N+](C)C)cc-3oc2c1; rhodamine X acetamide = R492, linked via the cysteine sulfhydryl; Fmoc = O=C(OCC1c2ccccc2-c2ccccc21)*; Nle = CCCC[C@H](N)C(=O)O; Aib = CC(C)(N)C(=O)O; Ahx = NCCCCCC(=O)O

T1: CPP32 protease (human (Jurkat cells), UniProt P42574 29-277)
T1 sequence (looked up): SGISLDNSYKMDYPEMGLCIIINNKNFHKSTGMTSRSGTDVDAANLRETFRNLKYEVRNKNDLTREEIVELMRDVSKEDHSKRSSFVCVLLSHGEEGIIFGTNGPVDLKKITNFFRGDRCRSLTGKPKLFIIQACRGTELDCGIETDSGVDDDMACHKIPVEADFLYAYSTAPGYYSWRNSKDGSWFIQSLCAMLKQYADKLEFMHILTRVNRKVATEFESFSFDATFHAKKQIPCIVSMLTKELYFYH


Experiments:
CPP32 protease = target: T1, CPP32 protease; experiment: cell-based or functional assay
elastase = experiment: cell-based or functional assay

| Binder | increase in fluorescence intensity in anti-Fas-activated Jurkat cells (flow cytometry) (CPP32 protease) [fold] | increase in fluorescence at 589 nm after treatment with elastase (elastase) [fold] | increase in fluorescence within the first 1000 seconds of exposure to elastase (elastase) [fold] |
| --- | --- | --- | --- |
| Fmoc-K(carboxytetramethylrhodamine)D[Aib][Ahx]GDEVDGIDG[Ahx]PK(carboxytetramethylrhodamine)GY [Fm-CGD2D, Fm-K[F1]DBJGDEVDGIDGJPK[F1]GY (compound 11 of Table 12)] | ≤ 10 | – | – |
| {5‑TMR}-DAIP[Nle]SIPC(rhodamine X acetamide) [D-NorFES-A protease indicator, F1-Asp-Ala-Ile-Pro-Nle-Ser-Ile-Pro-Cys-F2] | – | > 10 | > 5 |
